Measurements published in US20240025997A1 (NGM BIOPHARMACEUTICALS, published 2024).

B1: humanized anti-ILT2/ILT4 antibody Hz47H6.v2 (antibody, human IgG1, kappa, N297G, V domains shown)
VH: QVQLVQSGAEVKKPGASVKVSCKASGYTFTDYYMNWVRQAPGQRLEWIGDFNPNNAGTTYNQKFEGRVTITVDKSASTAYMELSSLRSEDTAVYYCARGRFYYGSLYSFDYWGQGTLVTVSS
VL: DIQMTQSPSSLSASVGDRVTITCRASGNIHNYLAWYQQKPGKAPKLLIYNAKTLADGVPSRFSGSGSGTDFTLTISSLQPEDFATYYCQHFWTSITFGPGTKVDIKR
B2: anti-ILT2/ILT4 antibody 73C4 (antibody, V domains shown)
VH: AVQLQQSGPELVKPGASVKISCKASGYTFTDYYMNWVKQSHGKSLEWIGNVNPNNGGTSYNQKFKGKATLTVDKSSSTAYMELRSLTSEDSAVYYCARREIYFYGTIYYYAMDYWGQGTSVTVSS
VL: DIVLTQSPASLAVSLGQRATISCRASESVDYYGNSFMYWYQQKPGRPPNLLIYFASNLESGVPARFSGSGSRTDFTLTIDPVEADDAATYYCQQNNEDPWTFGGGTKLEIK
notes: Mouse hybridoma antibody
B3: anti-ILT2/ILT4 antibody 51A1 (antibody, V domains shown)
VH: EVQLVESGGGLVQPKGSLKLSCAASGFTFNTYAMHWVRQAPGKGLEWVARIRSKSSNYATYYADSVKDRFTISRDDSQSMLYLQMNNLKTEDTAMYYCVRDGIYYYGTMYYYAMDYWGQGTSVTVSS
VL: NIVLTQSPASLAVSLGQRATISCRASESVDYYGNSFMYWYQQKPGQPPKLLIYFASNLESGVPARFSGSGSRTDFTLTIDPVEAADAASYYCQQNNEDPWTFGGGTKLEIK
notes: Mouse hybridoma antibody
B4: anti-ILT2/ILT4 antibody 64A12 (antibody, V domains shown)
VH: EVQLVESGGGLVQPKGSLKLSCAASGFTFNTYAMHWVRQAPGKGLEWVARIRSKSSNYATYYADSVKDRFTISRDDSQSMLYLQMNNLKTEDTAMYYCVRDGIYYYDTMYYYAMDYWGQGTSVTVSS
VL: NIVLTQSPASLAVSLGQRATISCRASESVDYYGNSFIYWYQQKPGQPPKLLIYFASNLESGVPARFSGSGSRTDFTLTIDPVEAADAASYYCQQNNEDPWTFGGGTKLEIK
notes: Mouse hybridoma antibody
B5: anti-ILT2/ILT4 antibody 73D1 (antibody, V domains shown)
VH: AVQLQQSGPELVKPGASVKISCKASGYTFTDYYINWVKQSHGKSLQWIGNVNPNDGGTTYNQKFKGKATLTVDKSSSTAYMELRSLTSEDSAVYYCARREIYFYGTIYYYAMDYWGQGTSVTVSS
VL: DIVLTQSPASLAVSLGQRATISCRASESVDYYGNSFMYWYQQKPGRPPNLLIYFASNLESGVPARFSGSGSRTDFTLTIDPVEADDAATYYCQQNNEDPWTFGGGTKLEIK
notes: Mouse hybridoma antibody; Shares its light chain variable region with 73C4
B6: humanized anti-ILT2/ILT4 antibody Hz64A12 (antibody, human IgG1, kappa, N297G, V domains shown)
VH: EVQLVESGGGLVQPGGSLRLSCAASGFTFNTYAMHWVRQAPGKGLEWVARIRSKSSNYATYYADSVKDRFTISRDDAKNSLYLQMNSLRAEDTAVYYCARDGIYYYDTMYYYAMDYWGQGTLVTVSS
VL: NIVLTQSPDSLAVSLGERATINCRASESVDYYGNSFIYWYQQKPGQPPKLLIYFASNLESGVPDRFSGSGSGTDFTLTISSLQAEDVAVYYCQQNNEDPWTFGGGTKVEIKR
notes: Human IgG1 constant region with G at position 297, human kappa
B7: anti-ILT2/ILT4 antibody 47H6 (antibody, V domains shown)
VH: EVQLQQSGPELVKPGASVKISCKASGYTFTDYYMNWVKQSHGKSLEWIGDFNPNNGGTTYNQKFEGKATLTVDKSSNTAYMDLRSLTSEDSAVYYCARGRFYYGSLYSFDYWGQGTTLTVSS
VL: DIQMTQSPASLSASVGETVTITCRASGNIHNYLAWYQQKQGKSPHLLVYNAKTLADGVPSRFSGSGSGTQYSLKINNLQPEDFGSYYCQHFWTSITFGAGTKLDLK
notes: Mouse hybridoma antibody

How the values were obtained:
[1] = target: T1, soluble human ILT4-ECD (human, UniProt Q8N423 22-460); assay: SPR (Biacore) as described in Example 3
T1 construct: also called LILRB2 extracellular domain
T1 sequence (Q8N423 other isoform, or with tags, fused parts or gaps): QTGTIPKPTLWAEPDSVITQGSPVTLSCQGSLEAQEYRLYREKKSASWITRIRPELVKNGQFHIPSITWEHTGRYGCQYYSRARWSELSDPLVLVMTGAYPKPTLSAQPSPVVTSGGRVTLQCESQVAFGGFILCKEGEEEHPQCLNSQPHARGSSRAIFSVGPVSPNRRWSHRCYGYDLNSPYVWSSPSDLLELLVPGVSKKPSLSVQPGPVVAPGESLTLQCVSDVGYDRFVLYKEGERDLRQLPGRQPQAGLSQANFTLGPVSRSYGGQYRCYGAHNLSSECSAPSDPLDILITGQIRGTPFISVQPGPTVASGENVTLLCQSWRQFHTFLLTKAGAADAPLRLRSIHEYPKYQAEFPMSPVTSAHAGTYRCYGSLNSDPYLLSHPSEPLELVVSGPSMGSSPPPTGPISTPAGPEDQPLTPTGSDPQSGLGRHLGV
Experimental: (§1) The binding affinities of anti-ILT2 and anti-ILT4 antibodies were measured using a Biacore system (GE Healthcare LifeSciences). Equilibrium dissociation constant (KD) measurements were carried out with purified antibodies to evaluate their binding to human ILT2, human ILT4, and rhesus ILT2. Briefly, purified anti-ILT2 antibody 27F9, anti-ILT4 antibodies 47C8 and 48A5, and anti-ILT2/ILT4 antibodies 47H6, 51A1, 64A12, 73C4, and 73D1 were captured on a Sensor Chip Protein A (GE HealthCare). The surface of the Biacore Sensor Chip Protein A consists of a carboxymethylated dextran matrix with a recombinant Protein A variant covalently attached. Soluble human ILT2-ECD, human ILT4-ECD, or rhesus ILT2-ECD were injected at a flow rate of 30 μL/min at 25° C. The ILT2 or ILT4 proteins were used at concentrations ranging from 1.6-200 nM in PBS-P buffer with 2 fold dilutions. Kinetic data were collected over time and fit using the simultaneous global fit equation to yield affinity constants (KD values) for each antibody.
(§2) The binding affinities of the humanized antibodies to human ILT2 and human ILT4 were measured using a Biacore system as described herein. The binding affinities of antibodies Hz47H6.v2, Hz64A12, and Hz73D1.v1 are shown in Table 11 as compared with the parental antibodies.

[2] = target: T2, soluble human ILT2-ECD (human, UniProt Q8NHL6 24-461); assay: SPR (Biacore) as described in Example 3
T2 construct: also called LILRB1 extracellular domain
T2 sequence (Q8NHL6 24-461): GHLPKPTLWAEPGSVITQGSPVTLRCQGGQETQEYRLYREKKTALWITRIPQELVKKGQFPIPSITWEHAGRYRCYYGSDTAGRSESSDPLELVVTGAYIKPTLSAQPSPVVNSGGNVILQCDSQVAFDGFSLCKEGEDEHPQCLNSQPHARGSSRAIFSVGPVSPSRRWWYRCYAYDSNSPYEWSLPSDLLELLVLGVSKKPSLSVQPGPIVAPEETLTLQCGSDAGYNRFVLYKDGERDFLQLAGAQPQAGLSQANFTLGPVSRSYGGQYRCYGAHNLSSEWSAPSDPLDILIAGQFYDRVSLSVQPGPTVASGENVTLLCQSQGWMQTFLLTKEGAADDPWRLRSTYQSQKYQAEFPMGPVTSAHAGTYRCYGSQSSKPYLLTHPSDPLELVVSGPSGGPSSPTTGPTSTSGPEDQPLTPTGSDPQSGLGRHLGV
Experimental: as §1, §2

[3] = target: T1, soluble human ILT4-ECD; assay: SPR (Biacore), antibody captured on Protein A chip, soluble ILT-ECD injected, 25 C, low resolution parameters
Experimental: as §1

[4] = target: T2, soluble human ILT2-ECD; assay: as above
Experimental: as §1

[5] = target: T1, soluble human ILT4-ECD; assay: SPR (Biacore), antibody captured on Protein A chip, soluble ILT-ECD injected (1.6-200 nM), 25 C
Experimental: as §1

[6] = target: T2, soluble human ILT2-ECD; assay: as above
Experimental: as §1

[7] = target: T1, soluble human ILT4-ECD; assay: SPR (Biacore) as described in Example 3, low resolution parameters
Experimental: as §1, §2

[8] = target: T2, soluble human ILT2-ECD; assay: as above
Experimental: as §1, §2

[9] = target: T3, cynomolgus monkey ILT2 on cells (cynomolgus monkey); assay: flow cytometry, fluorescently labelled antibody on CD14+ monocytes of cyno PBMC, donor Cyno 2, geometric MFI
T3 construct: also called cyno ILT2; ILT2 on cyno CD14+ monocytes
T3 sequence (chain, as listed by the source): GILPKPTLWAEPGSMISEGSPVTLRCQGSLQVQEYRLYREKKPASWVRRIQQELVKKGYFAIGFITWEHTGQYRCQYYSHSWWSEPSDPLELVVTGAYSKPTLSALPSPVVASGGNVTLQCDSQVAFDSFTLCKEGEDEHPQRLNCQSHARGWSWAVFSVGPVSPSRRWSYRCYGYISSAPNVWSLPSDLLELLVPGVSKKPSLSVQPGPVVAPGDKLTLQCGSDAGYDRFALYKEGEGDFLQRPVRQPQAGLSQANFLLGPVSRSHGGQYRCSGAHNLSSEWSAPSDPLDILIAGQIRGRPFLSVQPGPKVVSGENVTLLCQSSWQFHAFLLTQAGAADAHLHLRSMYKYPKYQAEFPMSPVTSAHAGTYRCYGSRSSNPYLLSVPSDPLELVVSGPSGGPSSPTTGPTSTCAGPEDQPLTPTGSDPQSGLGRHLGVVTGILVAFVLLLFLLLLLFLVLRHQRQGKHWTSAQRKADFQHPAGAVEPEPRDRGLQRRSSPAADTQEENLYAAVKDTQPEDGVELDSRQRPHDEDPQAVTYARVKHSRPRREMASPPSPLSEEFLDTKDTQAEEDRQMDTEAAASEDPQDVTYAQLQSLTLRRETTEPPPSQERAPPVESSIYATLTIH
Experimental: (§3) The binding of anti-ILT2/ILT4 antibodies to monocytes was evaluated. The binding of exemplary anti-ILT2/ILT4 antibody 73D1 and the humanized version Hz73D1.v1 to the CD14+ monocyte population of human and cyno PBMC were determined by flow cytometry analysis. Briefly, human or cyno PBMCs (from 2 donors each) were thawed, washed in media (RPMI, 10% FBS, L-glutamine, pen/strep), and resuspended in fresh media. PBMCs were stained with a cocktail of labeled antibodies to differentiate between the different cell types. 1×10⁶ cells/well were stained with fluorescently-labelled 73D1 or Hz73D1.v1 antibody and incubated on ice. The cells were washed with ice-cold reagents and immediately analyzed by flow cytometry. The geometric mean fluorescence intensity for CD14+ monocytes was calculated for each sample. […] For example, the 50% effective concentration (EC₅₀) of Hz73D1.v1 was 8.8 nM with human monocytes and 1.8 nM with cyno monocytes.

[10] = target: T3, cynomolgus monkey ILT2 on cells; assay: flow cytometry, fluorescently labelled antibody on CD14+ monocytes of cyno PBMC, donor Cyno 1, geometric MFI
Experimental: as §3

[11] = target: T4, human ILT4 on cells (human, UniProt Q8N423 22-597); assay: flow cytometry, fluorescently labelled antibody on immune cell subsets of PBMC / red-cell-depleted whole blood
T4 construct: also called LILRB2; human ILT4 expressed on 293T cells
T4 sequence (Q8N423 other isoform, or with tags, fused parts or gaps): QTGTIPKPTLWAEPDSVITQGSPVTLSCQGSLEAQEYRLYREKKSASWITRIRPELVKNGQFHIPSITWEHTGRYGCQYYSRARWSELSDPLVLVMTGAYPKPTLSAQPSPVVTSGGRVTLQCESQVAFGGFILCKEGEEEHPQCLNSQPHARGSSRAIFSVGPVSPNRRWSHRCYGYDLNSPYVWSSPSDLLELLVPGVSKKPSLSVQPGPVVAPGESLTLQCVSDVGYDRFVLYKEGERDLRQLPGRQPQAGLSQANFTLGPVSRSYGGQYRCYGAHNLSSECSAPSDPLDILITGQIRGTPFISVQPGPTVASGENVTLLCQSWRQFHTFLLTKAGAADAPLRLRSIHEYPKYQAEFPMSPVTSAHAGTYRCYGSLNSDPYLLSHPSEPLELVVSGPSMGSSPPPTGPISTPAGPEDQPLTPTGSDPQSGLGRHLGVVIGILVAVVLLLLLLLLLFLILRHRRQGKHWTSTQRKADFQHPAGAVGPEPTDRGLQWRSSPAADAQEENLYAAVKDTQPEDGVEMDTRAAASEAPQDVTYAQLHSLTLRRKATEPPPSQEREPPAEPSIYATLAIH
Experimental: Flow cytometry analysis of blood immune cells was performed on human and cyno PBMC and whole blood. PBMC were prepared from a leukopak (Allcells Inc.) by centrifugation through ficoll, washing with PBS and freezing in cryopreservation buffer in liquid nitrogen until use. Whole blood (Allcells Inc.) was obtained fresh and red blood cells (RBC) depleted using ammonium chloride RBC lysing solution (Biolegend). PBMC or whole blood samples were stained with a fluorescently labeled antibody panel to distinguish various immune subsets (monocytes, B cells, NK cells, CD4+ and CD8+ T cells, neutrophils and eosinophils). Samples were further stained with fluorescently labeled isotype, 27F9 (ILT2 specific), 48A5 (ILT4 specific), 73D1, and Hz73D1.v1. The number of ILT2 and ILT4 molecules per cell of each immune subset was estimated by incubation with Quantum Simply Cellular microspheres followed by flow cytometry analysis.

| Binder | Kd [1] [nM] | koff [1] [s⁻¹] | kon [1] [M⁻¹ s⁻¹] | Kd [2] [nM] | koff [2] [s⁻¹] | kon [2] [M⁻¹ s⁻¹] | Kd [5] [nM] | koff [5] [s⁻¹] | kon [5] [M⁻¹ s⁻¹] | Kd [6] [nM] | koff [6] [s⁻¹] | kon [6] [M⁻¹ s⁻¹] | also measured |
| --- | --- | --- | --- | --- | --- | --- | --- | --- | --- | --- | --- | --- | --- |
| B1 | 2 | 0.00018 | 87000 | 4 | 0.0009 | 230000 | – | – | – | – | – | – | – |
| B2 | – | – | – | – | – | – | – | – | – | – | – | – | Kd [3]: < 0.1 nM; koff [3]: ~1e-05 s⁻¹; kon [3]: 97000 M⁻¹ s⁻¹; Kd [4]: < 0.1 nM; koff [4]: ~1e-05 s⁻¹; kon [4]: 31000 M⁻¹ s⁻¹ |
| B3 | – | – | – | – | – | – | 0.2 | 1.4e-05 | 68000 | 5.8 | 0.00022 | 39000 | – |
| B4 | – | – | – | – | – | – | – | – | – | – | – | – | Kd [7]: < 0.1 nM; koff [7]: ~1e-05 s⁻¹; kon [7]: 82000 M⁻¹ s⁻¹; Kd [8]: < 0.1 nM; koff [8]: ~1e-05 s⁻¹; kon [8]: 20000 M⁻¹ s⁻¹; Kd [3]: < 0.1 nM; koff [3]: ~1e-05 s⁻¹; kon [3]: 82000 M⁻¹ s⁻¹; Kd [4]: < 0.1 nM; koff [4]: ~1e-05 s⁻¹; kon [4]: 20000 M⁻¹ s⁻¹ |
| B5 | 0.74 | 0.0003 | 400000 | 1.8 | 0.00024 | 150000 | 0.18 | 5.4e-05 | 300000 | 1.2 | 6e-05 | 50000 | EC50 (read off the curve) [9]: ~0.9 nM; EC50 (read off the curve) [10]: ~0.7 nM; binding result [11]: binds |
| B6 | – | – | – | – | – | – | – | – | – | – | – | – | Kd [7]: < 0.1 nM; koff [7]: ~1e-05 s⁻¹; kon [7]: 300000 M⁻¹ s⁻¹; Kd [8]: 1.6 nM; koff [8]: 0.00014 s⁻¹; kon [8]: 93000 M⁻¹ s⁻¹ |
| B7 | 0.2 | 2.1e-05 | 100000 | 0.2 | 2.1e-05 | 100000 | 0.76 | 2.8e-05 | 37000 | 2.1 | 8.6e-05 | 42000 | – |
